Reference: US20080242608A1 (published 2008)

B1: Endogenous FOXO3 (293T cells) (other, UniProt O43524 1-673, looked up)
chain: MAEAPASPAPLSPLEVELDPEFEPQSRPRSCTWPLQRPELQASPAKPSGETAADSMIPEEEDDEDDEDGGGRAGSAMAIGGGGGSGTLGSGLLLEDSARVLAPGGQDPGSGPATAAGGLSGGTQALLQPQQPLPPPQPGAAGGSGQPRKCSSRRNAWGNLSYADLITRAIESSPDKRLTLSQIYEWMVRCVPYFKDKGDSNSSAGWKNSIRHNLSLHSRFMRVQNEGTGKSSWWIINPDGGKSGKAPRRRAVSMDNSNKYTKSRGRAAKKKAALQTAPESADDSPSQLSKWPGSPTSRSSDELDAWTDFRSRTNSNASTVSGRLSPIMASTELDEVQDDDAPLSPMLYSSSASLSPSVSKPCTVELPRLTDMAGTMNLNDGLTENLMDDLLDNITLPPSQPSPTGGLMQRSSSFPYTTKGSGLGSPTSSFNSTVFGPSSLNSLRQSPMQTIQENKPATFSSMSHYGNQTLQDLLTSDSLSHSDVMMTQSDPLMSQASTAVSAQNSRRNVMLRNDPMMSFAAQPNQGSLVNQNLLHHQHQTQGALGGSRALSNSVSNMGLSESSSLGSAKHQQQSPVSQSMQTLSDSLSGSSLYSTSANLPVMGHEKFPSDLDLDMFNGSLECDMESIIRSELMDADGLDFNFDSLISTQNVVGLNVGNFTGAKQASSQSWVPG

Experiments:
[1] = molecular target: B1; experiment: co-IP from 293T lysates with rabbit FOXO3 antibody, MST1 immunoblot
[2] = molecular target: T1, protein kinase MLK3 (endogenous, 293T cells) (UniProt Q16584 1-847); experiment: co-IP from 293T lysates with rabbit FOXO3 antibody, MLK3 immunoblot
T1 construct: Negative control in the co-immunoprecipitation of endogenous FOXO3
T1 sequence (Q16584 whole entry): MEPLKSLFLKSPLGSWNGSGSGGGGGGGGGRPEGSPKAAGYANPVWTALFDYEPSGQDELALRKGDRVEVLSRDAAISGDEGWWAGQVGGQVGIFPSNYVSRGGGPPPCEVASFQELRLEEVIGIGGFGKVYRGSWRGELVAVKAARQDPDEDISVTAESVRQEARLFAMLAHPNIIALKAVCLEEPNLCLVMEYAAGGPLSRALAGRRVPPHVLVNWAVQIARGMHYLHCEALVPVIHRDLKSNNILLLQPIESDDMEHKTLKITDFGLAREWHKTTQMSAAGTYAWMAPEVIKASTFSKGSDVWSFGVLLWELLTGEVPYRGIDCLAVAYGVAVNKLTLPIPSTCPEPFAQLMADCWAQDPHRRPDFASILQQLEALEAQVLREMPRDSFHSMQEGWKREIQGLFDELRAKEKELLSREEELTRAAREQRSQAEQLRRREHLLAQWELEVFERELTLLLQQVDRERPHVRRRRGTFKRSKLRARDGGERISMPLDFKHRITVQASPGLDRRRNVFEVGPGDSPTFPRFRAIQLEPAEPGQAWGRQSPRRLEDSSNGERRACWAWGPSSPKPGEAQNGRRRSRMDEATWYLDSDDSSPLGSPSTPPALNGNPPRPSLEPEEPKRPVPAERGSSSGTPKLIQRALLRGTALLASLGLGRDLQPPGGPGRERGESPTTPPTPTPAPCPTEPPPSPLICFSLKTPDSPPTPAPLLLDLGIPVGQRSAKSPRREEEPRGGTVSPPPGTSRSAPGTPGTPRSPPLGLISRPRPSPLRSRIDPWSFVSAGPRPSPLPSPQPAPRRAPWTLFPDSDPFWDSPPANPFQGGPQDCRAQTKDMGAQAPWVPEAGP

Row | binding result [1] | binding result [2] | Binder
1 | binds |  | Endogenous MST1 (293T cells) (enzyme, UniProt Q13043 1-487, looked up) METVQLRNPPRRQLKKLDEDSLTKQPEEVFDVLEKLGEGSYGSVYKAIHKETGQIVAIKQVPVESDLQEIIKEISIMQQCDSPHVVKYYGSYFKNTDLWIVMEYCGAGSVSDIIRLRNKTLTEDEIATILQSTLKGLEYLHFMRKIHRDIKAGNILLNTEGHAKLADFGVAGQLTDTMAKRNTVIGTPFWMAPEVIQEIGYNCVADIWSLGITAIEMAEGKPPYADIHPMRAIFMIPTNPPPTFRKPELWSDNFTDFVKQCLVKSPEQRATATQLLQHPFVRSAKGVSILRDLINEAMDVKLKRQESQQREVDQDDEENSEEDEMDSGTMVRAVGDEMGTVRVASTMTDGANTMIEHDDTLPSQLGTMVINAEDEEEEGTMKRRDETMQPAKPSFLEYFEQKEKENQINSFGKSVPGPLKNSSDWKIPQDGDYEFLKSWTVEDLQKRLLALDPMMEQEIEEIRQKYQSKRQPILDAIEAKKRRQQNF
2 |  | no binding | B1
